From US20080176793A1, “UPREGULATING ACTIVITY OR EXPRESSION OF BDNF TO MITIGATE COGNITIVE IMPAIRMENT IN ASYMPTOMATIC HUNTINGTON'S SUBJECTS” (THE REGENTS OF THE UNIVERSITY OF CALIFORNIA, priority 2006, published 2008) come the findings set out here.

Common to all, as to type: cell-based
The subject of assay [1] is hippocampal slices from Hdh^Q111 mice. Description: TBS-induced long-term potentiation (fEPSP slope) in acute hippocampal slices, field CA1. The protocol: (§1) Acute hippocampal slices were prepared, as described elsewhere (Kramar et al. (2004) J. Neurosci. 24: 5151-5161), from 8 week old Hdh^Q111, 24 week old Hdh^Q92 and age-matched WT mice and maintained at 32° C. in an interface chamber of local design. Synaptic responses (fEPSPs) were generated by stimulating the Schaffer-commissural afferents to the apical dendrites of field CA1b pyramidal cells using stimulating electrodes positioned in fields CA1a and CA1c. For baseline recording, fEPSPs were set to 30% of the maximum responses and low frequency stimulation (3 pulses/min) was delivered. The slope of the descending phase of the fEPSP was used as a measure of response size with all values normalized to a 15 min baseline period collected 1-2 h after slice preparation. LTP was induced with a single TBS train (ten bursts of 4 pulses at 100 Hz, inter-burst interval of 200 ms). BDNF (2 nM) was prepared and delivered to slices as described previously (Menalled (2005) NeuroRx 2: 465-470).
(§2) For all electrophysiology experiments, results are summarized in the text as a percent increase in responses from baseline. Data are presented as mean ±s.d. in the text and mean ±s.e.m. in the figures.

Assay [2] shares this test system. Description: Within-train facilitation of theta burst responses in hippocampal slices. The note with it: BDNF-treated Hdh^Q111 slices.
Description: Events that occur during the two-second period of TBS can potently influence the threshold, initial expression, magnitude, and stability of LTP (Arai and Lynch (1992) Eur. J. Neurosci. 4: 411-419; Larson et al. (1986) Brain Res. 368: 347-350). […] In marked contrast, the facilitation of the second and subsequent burst responses, each a composite of four closely spaced fEPSPs, was greatly attenuated in Hdh^Q111 slices (FIG. 2, panel a, e.g. burst 4). The facilitation effect was quantified by expressing the areas of burst responses 2-10 as fractions of the area of the first burst response.
as §1, §2

For assay [3] the test system is unchanged. Description: In situ rhodamine-phalloidin labeling of F-actin (TBS-induced actin polymerization in dendritic spines). The following applies: BDNF 2 nM, Hdh^Q111 slices after TBS, n=13, mean ±s.d. Here is the method:
Physiological recording and delivery of TBS or low frequency stimulation was performed as described above. Starting 20 min after TBS, rhodamine-phalloidin (6 μM/2-4 μl; from Sigma, St. Louis, Mo., or Invitrogen, Carlsbad, Calif.) was applied topically (Kramar et al. (2006) Proc. Natl. Acad. Sci., USA, 103: 5579-5784) via micropipette 3 times separated by 3 min. To test the effects of BDNF on actin polymerization, BDNF (2 nM) or artificial cerebral spinal fluid was delivered to WT and Hdh^Q111 slices via a reperfusion pump system (Cole-Palmer, Vernon Hills, Ill.) at 1 ml/min 1-2 h before recording. […]
Sections were examined with epifluorescence illumination using an Olympus AX70 photomicroscope. Quantitative analyses were carried out on three serial sections situated 20 to 80 μm below the surface of original slice. […] These images were then converted to grayscale and intensity levels were cropped at values determined for each experiment to visualize low-intensity labeling.
Labeled spine-like structures were measured and counted from a 550 μm^2 sampling zone in the proximal stratum radiatum between the two stimulating electrodes using in-house software described in detail previously (Kramar et al. (2006) Proc. Natl. Acad. Sci., USA, 103: 5579-5784; Lin et al. (2005) J. Neurosci. 25: 2062-2069). […]

B1: BDNF: the neurotrophin, Brain-Derived Neurotrophic Factor, delivered at 2 nM to hippocampal slices (protein, UniProt P23560 19-247, looked up)
Neurotrophic factor BDNF …: APMKEANIRGQGGLAYPGVRTHGTLESVNGPKAGSRGLTSLADTFEHVIEELLDEDQKVRPNEENNKDADLYTSRVMLSSQVPLEPPLLFLLEEYKNYLDAANMSMRVRRHSDPARRGELSVCDSISEWVTAADKKTAVDMSGGTVTVLEKVPVSKGQLKQYFYETKCNPMGYTKEGCRGIDKRHWNSQCRTTQSYVRALTMDSKKRIGWRFIRIDTSCVCTLTIKRGR
Regarding B1, the “effect on baseline transmission” value in assay [1] (BDNF 2 nM infused for 60 min, Hdh^Q111 or WT slices) is recorded as “did not detectably change baseline transmission”. Moreover, the “LTP compared with WT slices” value in assay [1] (BDNF 2 nM, Hdh^Q111 slices (FIG. 7, panel a)) is “not detectably different from WTs”. Moreover, the “percent potentiation 45 min after TBS” value in assay [1] (BDNF 2 nM, Hdh^Q111 slices, mean ±s.d.) is on record as 43.6±23.5%. In addition, in assay [1] (BDNF 2 nM, Hdh^Q111 slices, n=11, mean ±s.d.), the “LTP at 20 min post-TBS (percent increase in responses from baseline)” value came out at 59.9±28.3%. The “potentiation at end of 60 min post-TBS recording” value in assay [1] (BDNF 2 nM, subgroup of Hdh^Q111 slices, n=4) is “stable potentiation was present at the end of recording”. Moreover, the “effect on responses to stimulation bursts in the theta train” value in assay [2] is “did not facilitate responses to any stimulation burst”. In addition, the “burst 9 greater than burst 1” value in assay [2] (mean ±s.d.) is on record as −5.8±9.3%. In addition, the “Facilitation of the second burst response” value in assay [2] (relative to burst 1, mean ±s.d.) was 46.1±10.2%. Further, the “number of phalloidin-labeled spines in the high-intensity bins” value in assay [3] was found to be 40.5±39.3 per 550 μm^2.
